Test results published in paper PMC11721587, “Morphogen-induced kinase condensates transduce Hh signal by allosterically activating Gli” (Science Advances, 2025).
Positions count from the first letter of the chain named.

B1: Ulk3-HA^WT (in HEK293T) (enzyme, mouse, UniProt Q3U3Q1 1-472, looked up)
chain: MAGPSWGLPRLDGFILTERLGSGTYATVYKAYAKKDTREVVAIKCVAKKSLNKASVENLLTEIEILKGIRHPHIVQLKDFQWDNDNIYLIMEFCAGGDLSRFIHTRRILPEKVARVFMQQLASALQFLHERNISHLDLKPQNILLSSLEKPHLKLADFGFAQHMSPWDEKHVLRGSPLYMAPEMVCRRQYDARVDLWSVGVILYEALFGQPPFASRSFSELEEKIRSNRVIELPLRPQLSLDCRDLLQRLLERDPARRISFKDFFAHPWVDLEHMPSGESLAQARALVVEAVKKDQEGDAAAALSLYCKALDFFVPALHYEVDAQRKEAIKAKVGQYVSRAEELKAIVSSSNQALLRQGTTVQELLREMARDKPRLLAALEVASAALAKEEEAGKEQDALDLYQHSLGELLVLLAAEAPGRRRELLHTEVQNLMARAEYLKEQIKIRESHWEAESLDKEGLSESVRSSCTLQ
modifications: SUMO-conjugated form enriched in the condensates (P100)
notes: source: HEK293T, transfected, overexpressed; in lysate fractions (S100, P100); purified from HEK293T for in vitro maturation; not shown: 3x HA, C-terminal, kept
B2: Flag-Fu^EE (enzyme)
chain: MNRYAVSSLVGQGSFGCVYKATRKDDSKVVAIKVISKRGRATKELKNLRRECDIQARLKHPHVIEMIESFESKTDLFVVTEFALMDLHRYLSYNGAMGEEPARRVTGHLVSALYYLHSNRILHRDLKPQNVLLDKNMHAKLCDFGLARNMELGEHVLTSIKGTPLYMAPELLAEQPYDHHADMWSLGCIAYESMAGQPPFCASSILHLVKMIKHEDVKWPSTLTSECRSFLQGLLEKDPGLRISWTQLLCHPFVEGRIFIAETQAEAAKESPFTNPEAKVKSSKQSDPEVGDLDEALAALDFGESRQENLTTSRDSINAIAPSDVEHLETDVEDNMQRVVVPFADLSYRDLSGVRAMPMVHQPVINSHTCFVSGNSNMILNHMNDNFDFQASLRGGGVAAKPIVAPTVRQSRSKDLEKRKLSQNLDNFSVRLGHSVDHEAQRKATEIATQEKHNQENKPPAEAISYANSQPPQQQPQQLKHSMHSTNEEKLSSDNTPPCLLPGWDSCDESQSPPIENDEWLAFLNRSVQELLDGELDSLKQHNLVSIIVAPLRNSKAIPRVLKSVAQLLSLPFVLVDPVLIVDLELIRNVYVDVKLVPNLMYACKLLLSHKQLSDSAASAPLTTGSLSRTLRSIPELTVEELETACSLYELVCHLVHLQQQFLTQFCDAVAILAASDLFLNFLTHDFRQSDSDAASVRLAGCMLALMGCVLRELPENAELVERIVFNPRLNFVSLLQSRHHLLRQRSCQLLRLLARFSLRGVQRIWNGELRFALQQLSEHHSYPALRGEAAQTLDEISHFTFFVT
modifications: SUMOylated in Sf9 cells (condensate fraction)
B3: fused (Fu) (enzyme, Drosophila (endogenous in Cl8), UniProt P23647 1-805, looked up)
chain: B2 chain with E151T, E154T
notes: Fu Ser/Thr kinase, Drosophila, endogenous in Cl8 cells; After Hh it is phosphorylated (T158/S159, S482) and SUMO-conjugated; the SDS-resistant dimer is called mature Fu; also called endogenous Fu; mature Fu; source: endogenous, Cl8 cells (fractions, lysates)

Tests used:
[1] = molecular target: the molecule itself; assay: co-sedimentation; sedimentation assay of HEK293T cells overexpressing Ulk3-HA constructs; S100 soluble, P100 condensates
[2] = molecular target: the molecule itself; assay: SDS-PAGE and immunoblot (SDS-resistant dimer); SDS-resistant ~250 Kd Fu dimer ('mature Fu') in extracts of cells (Cl8 with Hh-conditioned medium, S2, Sf9, wing discs); tells nothing of SDS-labile association

| Protein | binding result [1] | stoichiometry N [2] |
| --- | --- | --- |
| B1 | binds | – |
| B2 | – | 2 |
| B3 | – | 2 |
